{
  "source": "paper PMC11770034",
  "about": "“Characterization of the oxygen-tolerant formate dehydrogenase from Clostridium carboxidivorans” (Frontiers in Microbiology, 2025)",
  "test_system": "T1, NC(=O)C1=CN([C@@H]2O[C@H](COP(=O)(O)OP(=O)(O)OC[C@H]3O[C@@H](n4cnc5c(N)ncnc54)[C@H](O)[C@@H]3O)[C@@H](O)[C@H]2O)C=CC1",
  "T1 construct": "Mo form",
  "test": "purified protein",
  "format": "biochemical, Clostridium carboxidivorans",
  "conditions": "100 mM sodium bicarbonate, 50 mM Bis-Tris pH 6.8, 30 °C, oxic, Mo-loaded enzyme, part of preparation may be inactive",
  "data": [
    {"substance": "ccFDH (Mo-ccFDH) (Clostridium carboxidivorans P7; U139C)", "values": [
      {"measurement": "Km", "value": "60 ± 7", "unit": "µM"},
      {"measurement": "Vmax", "value": 5.83, "unit": "µmol/min"},
      {"measurement": "kcat", "value": "0.02 ± 0.0008", "unit": "s⁻¹"},
      {"measurement": "kcat/Km", "value": "310 ± 84", "unit": "M⁻¹ s⁻¹"}
    ]}
  ]
}
